Reference: the supplement of paper PMC7877785
± gives the uncertainty stated by the source.

Assay: self-splicing fitness, log relative to wild type (ln ratio); higher = more splicing; Tetrahymena group I intron in knt gene, E. coli kanamycin selection, DiMSum; sequences stand for … in CUCUCU…GGAGGGAAAAGUUAUCAGGCAUGCACCUGGUAGCUAGUCUUUAAACCAAUAGAUUGCAUCGGUUUAAAAGGCAAGACCGUCAAAUUGCGGGAAAGGGGUCAACAGCCGUUCAGUACCAAGUCUCAGGGGAAACUUUGAGAUGGCCUUGCAAAGGGUAUGGUAAUAAGCUGACGGACAUGGUCCUAACCACGCAGCCAAGUCCUAAGUCAACAGAUCUUCUGUUGAUAUGGAUGCAGUUCACAGACUAAAUGUCGGUCGGGGAAGAUGUAUUCUUCUCAUAAGAUAUAGUCGGACCUCUCCUUAAUGGGAGCUAGCGGAUGAAGUGAUGCAACACUGGAGCCGCUGGGAACUAAUUUGUAUGCGAAAGUAUAUUGAUUAGUUUUGGAGUACUCGUGGUCG
In short: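 Six replicate transformations of E. coli BL21(DE3) with a pET-22b(+) library were grown overnight at 37°C or 30°C. The library randomised all eight P1ex-region intron nucleotides, the intron lying in the knt kanamycin-resistance gene, and plates were LB agar with or without 25 μg/mL kanamycin plus 100 μg/mL carbenicillin, 50 μM IPTG and 0.2% rhamnose. Pooled colonies were amplicon-sequenced on an Illumina HiSeq 2500, and fitness is the DiMSum error-weighted combination of wild-type-normalised replicate fold changes, kanamycin versus none.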

Sequence | self-splicing fitness (ln) (30 °C) | self-splicing fitness (ln) (37 °C)
ACGCAGCAAUAUUACGGGUG | -1.56 ± 0.068 | -0.519 ± 0.076
ACGCAGCAAUAUUACGGUAA | -2.69 ± 0.12 | -1.02 ± 0.082
ACGCAGCAAUAUUACGUACU | -1.12 ± 0.077 | -0.434 ± 0.088
ACGCAGCAAUAUUACGUAGC | -3.47 ± 0.12 | -1.89 ± 0.14
ACGCAGCAAUAUUACGUAGU | -2.76 ± 0.087 | -1.92 ± 0.1
ACGCAGCAAUAUUACGUAUU | -3.49 ± 0.32 | -2 ± 0.16
ACGCAGCAAUAUUACGUCUA | -1.55 ± 0.096 | -1.22 ± 0.08
ACGGAGCAAUAUUACGACUA | -2.73 ± 0.35 | -2.09 ± 0.24
ACGGAGCAAUAUUACGACUG | -1.95 ± 0.14 | -0.681 ± 0.13
ACGGAGCAAUAUUACGAGGC | -2.43 ± 0.19 | -2.07 ± 0.31
ACGGAGCAAUAUUACGAUAC | -2.35 ± 0.18 | -1.98 ± 0.22
ACGGAGCAAUAUUACGCGAA | -3.05 ± 0.32 | -1.57 ± 0.23
ACGGAGCAAUAUUACGCUAU | -3.81 ± 0.23 | -2.1 ± 0.19
ACGGAGCAAUAUUACGCUGA | -1.48 ± 0.17 | -1.9 ± 0.21
ACGGAGCAAUAUUACGGAAA |  | -2.15 ± 0.24
ACGGAGCAAUAUUACGGCAA | -2.98 ± 0.3 | -2.61 ± 0.27
ACGGAGCAAUAUUACGGCAC | -3.21 ± 0.28 | -2.43 ± 0.23
ACGGAGCAAUAUUACGGCAG |  | -1.07 ± 0.44
ACGGAGCAAUAUUACGGCGG | -1.4 ± 0.12 | -0.413 ± 0.13
ACGGAGCAAUAUUACGGGGA | -1.07 ± 0.24 | -3.6 ± 0.42
ACGGAGCAAUAUUACGUACG | -2.38 ± 0.45 | 
ACGGAGCAAUAUUACGUCAU | -4.36 ± 0.37 | -3.01 ± 0.37
ACGGAGCAAUAUUACGUGUG | -3.92 ± 0.19 | -2.56 ± 0.14
ACGGAGCAAUAUUACGUUAA | -2.65 ± 0.23 | -3.13 ± 0.47

Sequence | self-splicing fitness (ln) (30 °C) | self-splicing fitness (ln) (37 °C)
ACGUAGCAAUAUUACGAACU | -0.677 ± 0.059 | -0.266 ± 0.082
ACGUAGCAAUAUUACGACCA | -0.97 ± 0.086 | -0.34 ± 0.1
ACGUAGCAAUAUUACGAGGU | -3.36 ± 0.21 | -2.02 ± 0.2
ACGUAGCAAUAUUACGAUCA | -0.757 ± 0.1 | -0.359 ± 0.086
ACGUAGCAAUAUUACGAUCG | -1.15 ± 0.1 | -0.0917 ± 0.12
ACGUAGCAAUAUUACGAUUU | 0.256 ± 0.059 | -0.149 ± 0.073
ACGUAGCAAUAUUACGCAAG | -3.16 ± 0.24 | -3.03 ± 0.22
ACGUAGCAAUAUUACGCAGC | -3.26 ± 0.26 | -2.71 ± 0.25
ACGUAGCAAUAUUACGCAGG | -3.67 ± 0.24 | 0.325 ± 0.1
ACGUAGCAAUAUUACGGCAG | -4.15 ± 0.28 | -2.61 ± 0.33
ACGUAGCAAUAUUACGGCAU | -1.31 ± 0.1 | -0.11 ± 0.099
ACGUAGCAAUAUUACGGCGG | -1.65 ± 0.1 | -0.812 ± 0.11
ACGUAGCAAUAUUACGUACC | -1.4 ± 0.13 | -0.541 ± 0.19
ACGUAGCAAUAUUACGUACG | -2.3 ± 0.19 | -1.35 ± 0.23
ACGUAGCAAUAUUACGUCAA | -3.44 ± 0.27 | -2.34 ± 0.19
ACGUAGCAAUAUUACGUGAC | -2.84 ± 0.14 | -2.94 ± 0.22
ACGUAGCAAUAUUACGUGCC | -1.54 ± 0.22 | -0.492 ± 0.24
ACUAAGCAAUAUUACGAAUA | -2.99 ± 0.23 | -2.55 ± 0.25
ACUAAGCAAUAUUACGAGUG | -1.42 ± 0.08 | -0.758 ± 0.11
ACUAAGCAAUAUUACGAUGG | -0.371 ± 0.1 | -0.661 ± 0.16
ACUAAGCAAUAUUACGCAAA | -2.51 ± 0.24 | -1.77 ± 0.24
ACUAAGCAAUAUUACGCAAC | -3.28 ± 0.26 | -1.17 ± 0.27
ACUAAGCAAUAUUACGCAAG | -1.79 ± 0.074 | -1.49 ± 0.096
ACUAAGCAAUAUUACGCACA | -1.23 ± 0.11 | 0.0989 ± 0.1

Sequence | self-splicing fitness (ln) (30 °C) | self-splicing fitness (ln) (37 °C)
ACUAAGCAAUAUUACGCGCG | -0.732 ± 0.096 | -0.0128 ± 0.13
ACUAAGCAAUAUUACGCGGG | -2.3 ± 0.18 | -1.36 ± 0.15
ACUAAGCAAUAUUACGCUAG | -2.68 ± 0.14 | -1.82 ± 0.17
ACUAAGCAAUAUUACGCUGU | -2.77 ± 0.17 | -2.58 ± 0.35
ACUAAGCAAUAUUACGGAAC | -3.33 ± 0.29 | -2.77 ± 0.32
ACUAAGCAAUAUUACGGACC | -1.4 ± 0.15 | -0.596 ± 0.19
ACUAAGCAAUAUUACGGAGA | -1.36 ± 0.23 | -3.35 ± 0.33
ACUAAGCAAUAUUACGGCAU | -0.539 ± 0.062 | -0.563 ± 0.09
ACUAAGCAAUAUUACGGCUA | -0.685 ± 0.085 | 0.0711 ± 0.11
ACUAAGCAAUAUUACGGGAA | -2.17 ± 0.11 | -1.75 ± 0.15
ACUAAGCAAUAUUACGGGCG | -0.856 ± 0.091 | -0.529 ± 0.1
ACUAAGCAAUAUUACGGGUG | -0.981 ± 0.06 | -0.673 ± 0.097
ACUAAGCAAUAUUACGGGUU | -3.17 ± 0.16 | -2.34 ± 0.23
ACUAAGCAAUAUUACGGUAA | -1.56 ± 0.17 | -1.92 ± 0.18
ACUAAGCAAUAUUACGGUCC | -2.35 ± 0.2 | -1.04 ± 0.23
ACUAAGCAAUAUUACGGUCG | -2.89 ± 0.16 | -1.47 ± 0.15
ACUAAGCAAUAUUACGGUGA | -1.54 ± 0.093 | -0.619 ± 0.13
ACUAAGCAAUAUUACGUAAG | -1.05 ± 0.069 | -0.663 ± 0.089
ACUAAGCAAUAUUACGUAUA | -1.9 ± 0.13 | -0.679 ± 0.12
ACUAAGCAAUAUUACGUCCG | -1.69 ± 0.12 | -0.322 ± 0.17
ACUAAGCAAUAUUACGUGAA | -1.24 ± 0.074 | -0.939 ± 0.1
ACUAAGCAAUAUUACGUGGC | -3.03 ± 0.14 | -2.57 ± 0.17
ACUCAGCAAUAUUACGAAAC | -2.62 ± 0.092 | -1.43 ± 0.11
ACUCAGCAAUAUUACGAACA | -1.16 ± 0.076 | -0.892 ± 0.09

Sequence | self-splicing fitness (ln) (30 °C) | self-splicing fitness (ln) (37 °C)
ACUCAGCAAUAUUACGAAGU | -3 ± 0.14 | -1.75 ± 0.14
ACUCAGCAAUAUUACGAAUC |  | -1.05 ± 0.32
ACUCAGCAAUAUUACGACAA | -0.977 ± 0.27 | -1.18 ± 0.24
ACUCAGCAAUAUUACGACUG | -3.86 ± 0.23 | -1.47 ± 0.14
ACUCAGCAAUAUUACGAGAC | -2.7 ± 0.24 | -1.87 ± 0.17
ACUCAGCAAUAUUACGAGAG | -2.02 ± 0.14 | -0.637 ± 0.12
ACUCAGCAAUAUUACGAGGC | -3.27 ± 0.34 | -2.56 ± 0.3
ACUCAGCAAUAUUACGAUAA | -1.25 ± 0.078 | -0.67 ± 0.097
ACUCAGCAAUAUUACGAUGC | -0.776 ± 0.066 | -0.0529 ± 0.075
ACUCAGCAAUAUUACGAUGG | -1.1 ± 0.063 | -0.87 ± 0.1
ACUCAGCAAUAUUACGCACA | -0.835 ± 0.083 | -0.539 ± 0.1
ACUCAGCAAUAUUACGCCAC | -2.88 ± 0.21 | 
ACUCAGCAAUAUUACGCCCU | -0.136 ± 0.15 | 0.51 ± 0.17
ACUCAGCAAUAUUACGCUGU | -3.46 ± 0.19 | -1.4 ± 0.17
ACUCAGCAAUAUUACGGAAG | -0.707 ± 0.088 | -0.89 ± 0.13
ACUCAGCAAUAUUACGGACU | 0.409 ± 0.086 | -0.57 ± 0.087
ACUCAGCAAUAUUACGGUAG | -3.73 ± 0.13 | -2.92 ± 0.15
ACUCAGCAAUAUUACGGUGA | -2.73 ± 0.12 | -1.23 ± 0.095
ACUCAGCAAUAUUACGUCGU | -1.42 ± 0.07 | -0.573 ± 0.081
ACUCAGCAAUAUUACGUGAC | -3.15 ± 0.14 | -0.561 ± 0.11
ACUCAGCAAUAUUACGUUUA | -1.54 ± 0.078 | -0.51 ± 0.086
ACUGAGCAAUAUUACGAAAU | -2.94 ± 0.24 | -1.72 ± 0.22
ACUGAGCAAUAUUACGAAUU | -2.97 ± 0.29 | -2.1 ± 0.24
ACUGAGCAAUAUUACGACCA | -2.57 ± 0.39 | -1.1 ± 0.28
